Variants at the floor of the assay were thinned out.
B1: TPR 5TU (parent)
chain: GGAUCUUCUCGAUCUAACAAAAAAGACAAAUCUGCCACAAAGCUUGAGAGCAUCUUCGGAUGCAGAGGCGGCAGCCUUCGGUGGCGCGAUAGCGCCAACGUUCUCAACUAUGACACGCAAAACGCGUGCUCCGUUGAAUGGAGUUUAUCAUG

Variants of: B1
Experiment: polymerase ribozyme fitness, log enrichment relative to wild type (log ratio); higher = more active; in vitro selection for triplet polymerase activity
Method in brief: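 Each subunit of a heterodimeric triplet polymerase ribozyme was represented by a PCR-built, transcribed mutant library that underwent triplicate single-round in vitro selection with frozen incubation at −7 °C. Extended constructs were recovered by gel excision, streptavidin-bead capture and RT-PCR, and Illumina sequencing of input and output libraries kept genotypes with ≥10 input reads and ≥1 read per output. Fitness is the logarithm of genotype enrichment relative to wild-type enrichment, from inverse-variance-weighted replicate averages, with a logarithm base of 2.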

Row | Variant | polymerase ribozyme fitness (log ratio)
1 | GGAUCUUCUCGAUCUGACAAAUAAGACAAAUCUGCCACAAAGCUUGCGAGCAUCUUCGGAUGCAGAGGCGGCAGCCUUCGGUGGCGCGAUAGCGAUAACGUUCUCAACUAUGACACGCAAAACGCGUGCUCCGUUGAAUGGAGUUUAUCAUG [A16G A22U A47C C95A C96U] | -3.89
2 | GGAUCUUCUCGAUCUGACUAAAAAGACAAAUCUGCCACAAAGCUUGAAAGCAUAUUCGGAUGCAGAGGCGGCAGCCUUCGGUGGCGCGAUAGCGCCAACGGUCUCAAAUAUGACACGCAAAACGCGUGCUCCGUUGCAUGGAGUUUAUCCUG [A16G A19U G48A C54A U101G C108A A137C A150C] | ≤ -4.2
3 | GGAUCUUCUCGAUCUGACAAAAAAGACAAAUCUGCCCCAAAGCUUAAGACCAUCUUCGGAUGCAGAGGCGGCAGCCUUCGGUGGCGAGAUAACGCCAACGUUCUCAACUAUGACACGCAAAACGCGUGCUCCGUUGACUGGAGUUUUUCAUG [A16G A37C G46A G50C C87A G92A A138C A147U] | ≤ -4.2
4 | GGAUCUUCUCGAUCUGACAAAAAAGACAAAUCUGCCACUAAGGUUGAGAUCAUCUUCGGAUGCAGACGCGGCAGCCUUCGGUGGCGCGAUAGCGCCAACGUUCUCAACAAUGACACGCAAAACGCGUGCUCCGAUGAACGGAGUUUAUCAUG [A16G A39U C43G G50U G67C U109A U134A U139C] | ≤ -4.2
5 | GGAUCUUCUCGAUCUGACAAAAAAGACAAAUCUGCCUCAAAGCUUGAGAGCAUCUUCGGUUGCAGAGGCGCCAGCCUUCGGUGACGCGAUAGCGCCAACGUUCUCAACUAUGACAAGCAAAACCCGUGCUCCGUUGAAUGGAGUUGAUCAUG [A16G A37U A60U G71C G84A C116A G124C U146G] | ≤ -4.2
6 | GGAUCUUCUCGAUCUGACACAAAAGACAAAUCUGACACAAAGCAUGGGAGCAUCUUCGGAUGCAGAGGCGGCAGCCUUCGGUGGCGCGAUAGCGCCAACGUUCUCAACUAUGACACGCAAAACGCGUGUUCCGUUGAAUCGAGUUUAUCAUG [A16G A20C C35A U44A A47G C129U G140C] | ≤ -4.2
7 | GGAUCUUCUCGAUCUGACAAAACAGACAAAUCUGCCACAAAGCUUGAGAGCAUCGUCGGAUGCAGAGGCGGCAGCCUUCGGUGGCGCAAUAGCGCCAACGUUCUCAAAUACGACACGCAAACCGCGUGCUCCGUUGAAUGGAGUUUAUCAUG [A16G A23C U55G G88A C108A U111C A122C] | ≤ -4.2
8 | GGAUCUUCUCGAUCUGACAAAAAAGACAAAUCUGCCACAAAGCUUGAGUGCAUCUUCGGAUGUAGAGGCGGUAGCCUUCGGUGGCGCCAUAGCGCCAACGUUCUCAACUAUGACACGCAAAACGCGUGCUCCGUUGAAUGCAGUUUAUCAUG [A16G A49U C63U C72U G88C G141C] | ≤ -4.2
9 | GGAUCUUCUCGAUCUGACAAAAAAGUCAAACCUGCCACAAAGCUUGAGAGCAUCUUCGGAUGCAGAGGCGGCAGCCUUCGGAGGCGCGAUAGCGCCAACGUUCUCUACUAUGACACGCAAAACGCGUGCUACGUUGAAGGCAGUUUAUCAUG [A16G A26U U31C U82A A106U C131A U139G G141C] | ≤ -4.2
10 | GGAUCUUCUCGAUCUGACAAAAUAGACAAAUCUGCCACAAAGCUUGAGAGCAUCUUCGGAUGCAGAGGCGGAAGCCUUCGGUGGCGAGAUAGUGCCAACGUUCUCAACUAUGACACGCAAAACGCAUGCUCCGUUGAAUGGAGUUUAUCAUG [A16G A23U C72A C87A C93U G126A] | ≤ -4.2
11 | GGAUCUUCUCGAUCUGACAAAUAAGACAAAUCUGCCACAAAGCUUGAGAGCAUCUUCGGAUGCAGAGGCGGCAGCCUUCGGUGGCGCGAUAGCACCAACGUUCUCAACUAUGACACGCAAAACGCGUGCUCCGUUGAAUGGAGUUUAUCAUG [A16G A22U G94A] | -0.896
12 | GGAUCUUCUCGAUCUGACAAAAAAGACAAUUCUGCCAAAAAGCUUGAGAGCAUCUUCGGAUGCAGAGGCGGCAGCCUUCGGUGGCGCGAUAGCGCGCACGUUCUGAUCUUUGACACGCAAAACGCGUGCUCCGUUGAAUGGAGUUUAUCAUG [A16G A30U C38A C96G A97C C105G A107U A110U] | ≤ -4.2
13 | GGAUCUUCUCGAUCUGACAAAAAAGACAAAUCUGCCACAACGCUUGAGAGCAUCGUCGGAUGCAGAGGCGGCAGCCUUCGGUGGCGCGAUAGCGCCAACGUUCUCAACUAUGACACGCAAAACGCGUGCUCCGUUGAAUGGCGUUUAUCAUG [A16G A41C U55G A142C] | -3.52
14 | GGAUCUUCUCGAUCUGACAUAAAAGACAAAUCUGCCACAAAGCUUUAGAGCAUCUUCGGGUGCAGAGGCGGCAGCCUUCGGUGGCGCGAUAGCGCCAACGUUCUCAACUAUGACACGCAAAACGCGUGCUCCGUUGACUGGAGUUUAUCAUG [A16G A20U G46U A60G A138C] | ≤ -4.2
15 | GGAUCUUCUCGAUCUGACAAAAAAGACGAAUCUGCCACAAAGCUUGAGAGCAUCUUCGAAUGCAGAGGCGGCAGCCUUCAGUCGCGUGAUAGCGCCAACGUUCUCAACUAUGACACGCAAAACGCGUGCUCCGUUGAAUGGAGUUUAUCAUG [A16G A28G G59A G80A G83C C87U] | ≤ -4.2
16 | GGAUCUUCUCGAUCUGACAUAAAAGACAAAUAUGCCACAAAGCUAGCGAGCAUCUUCGGAUGCAGAGGCGGCAGCCUUCGGUCGCGCGAUAGGGCCAACGUUCUCAACUAUGACACGCAAAACGCGUGCUCCGUUGAAUAGAGUUUAUCAUG [A16G A20U C32A U45A A47C G83C C93G G140A] | ≤ -4.2
17 | GGAUCUUCUCGAUCUGACAUAAAAGACAAAUCUGCCACAAAGCUUGAGAGCAUCUUCGGAUGCAGAGGCGGCAGCCUUCGGUGGCGCGAUAGCGCCAACGUUCUCAACUAUGACACGUAAAACGCGUGCUCCGUUGUAUGGAGUUUAUCAUG [A16G A20U C118U A137U] | ≤ -4.2
18 | GGAUCUUCUCGAUCUGACAAAAAAGACAUAUCUGCCACAAAGCUAGAGAGCAUGUUCGGAUGCAGAGGCGGCAGCCUUCGGUGGCGGGAUAGCGCCAACGUUCUCAACUAUGACACGCAAAACGGGUGCUCCGUUGAAUGGAGUUUAUCAUG [A16G A29U U45A C54G C87G C125G] | ≤ -4.2
19 | GGAUCUUCUCGAUCUGACAUAAAAGACAAAUCGGCCACAAAGCUUGAGAGCAUCUUCGGAUGCAGAGGCGGCAGCCUUCGGUGGAGCGAUAGCACCAACGUUCUCAACUAUGACACGCAAAACGCGUGCUCCGUUGAAUGGAGUUUAUCCUG [A16G A20U U33G C85A G94A A150C] | ≤ -4.2

From the RNAGym collection of RNA variant scans (doi:10.1073/pnas.2313332121)
